Measurements: the supplement of paper PMC10567573

B1: MED27 (parent)
chain: YNENVYTEDGKLDIWSKSNYQVFQ
B2: ZBTB22 (parent)
chain: AVLAASSPYFHDQVLLKGMTSISL

Variants of: B1
Experiment: protein stability index of a GFP-peptide fusion (GPS, HEK-293T) (PSI 1-6); higher = more stable
Settings: c terminus: a fixed tail appended
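Further: lentivirally expressed fusions sorted by FACS into six bins by GFP to DsRed ratio, PSI derived from sequencing read proportions per bin multiplied by bin number.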

Row | Variant | protein stability index
1 | YNERVYTEDGKLDIWSKSNYQVFQ | 2.31
2 | YNEWVYTEDGKLDIWSKSNYQVFQ | 1.15
3 | YNEQVYTEDGKLDIWSKSNYQVFQ | 2.53
4 | YNESVYTEDGKLDIWSKSNYQVFQ | 1.52
5 | YNEGVYTEDGKLDIWSKSNYQVFQ | 2.37
6 | YNEEVYTEDGKLDIWSKSNYQVFQ | 2.73
7 | YNECVYTEDGKLDIWSKSNYQVFQ | 2.29
8 | YNETVYTEDGKLDIWSKSNYQVFQ | 2.21
9 | YNEMVYTEDGKLDIWSKSNYQVFQ | 2
10 | YNEAVYTEDGKLDIWSKSNYQVFQ | 2.54
11 | YNEVVYTEDGKLDIWSKSNYQVFQ | 1.89
12 | YNEFVYTEDGKLDIWSKSNYQVFQ | 1.93
13 | YNEPVYTEDGKLDIWSKSNYQVFQ | 1.96
14 | YNEHVYTEDGKLDIWSKSNYQVFQ | 2.04
15 | YNELVYTEDGKLDIWSKSNYQVFQ | 1.99
16 | YNFNVYTEDGKLDIWSKSNYQVFQ | 1.8
17 | YNYNVYTEDGKLDIWSKSNYQVFQ | 1.64

Row | Variant | protein stability index
18 | YNKNVYTEDGKLDIWSKSNYQVFQ | 2.31
19 | YNPNVYTEDGKLDIWSKSNYQVFQ | 1.31
20 | YNDNVYTEDGKLDIWSKSNYQVFQ | 1.48
21 | YNCNVYTEDGKLDIWSKSNYQVFQ | 2.04
22 | YNLNVYTEDGKLDIWSKSNYQVFQ | 1.48
23 | YNTNVYTEDGKLDIWSKSNYQVFQ | 1.88
24 | YNSNVYTEDGKLDIWSKSNYQVFQ | 1.76
25 | YNHNVYTEDGKLDIWSKSNYQVFQ | 1.92
26 | YNMNVYTEDGKLDIWSKSNYQVFQ | 1.59
27 | YNNNVYTEDGKLDIWSKSNYQVFQ | 2.36
28 | YNGNVYTEDGKLDIWSKSNYQVFQ | 2.34
29 | YNVNVYTEDGKLDIWSKSNYQVFQ | 1.69
30 | YNANVYTEDGKLDIWSKSNYQVFQ | 1.88
31 | YNINVYTEDGKLDIWSKSNYQVFQ | 1.81
32 | YNRNVYTEDGKLDIWSKSNYQVFQ | 1.41
33 | YNWNVYTEDGKLDIWSKSNYQVFQ | 1.44
34 | YNQNVYTEDGKLDIWSKSNYQVFQ | 2.17

Variants of: B2
Experiment: as above
Settings: c terminus: a fixed tail appended

Row | Variant | protein stability index
35 | AVLAASSPYFHDQVLLKGMQSISL | 2.14
36 | AVLAASSPYFHDQVLLKGMVSISL | 4.26
37 | AVLAASSPYFHDQVLLKGMHSISL | 1.6
38 | AVLAASSPYFHDQVLLKGMLSISL | 3.1
39 | AVLAASSPYFHDQVLLKGMMSISL | 3.42
40 | AVLAASSPYFHDQVLLKGMISISL | 2.3
41 | AVLAASSPYFHDQVLLKGMNSISL | 2.51
42 | AVLAASSPYFHDQVLLKGMKSISL | 2.32
43 | AVLAASSPYFHDQVLLKGMTSISQ | 1.7
44 | AVLAASSPYFHDQVLLKGMTSISF | 3.47
45 | AVLAASSPYFHDQVLLKGMTSISI | 3.01
46 | AVLAASSPYFHDQVLLKGMTSISV | 1.53
47 | AVLAASSPYFHDQVLLKGMTSISP | 1.62
48 | AVLAASSPYFHDQVLLKGMTSISR | 1.84
49 | AVLAASSPYFHDQVLLKGMTSISS | 1.15
50 | AVLAASSPYFHDQVLLKGMTSISA | 1.58
51 | AVLAASSPYFHDQVLLKGMTSISY | 3.14
52 | AVLAASSPYFHDQVLLKGMTSISE | 1.52
53 | AVLAASSPYFHDQVLLKGMTSISH | 1.95
54 | AVLAASSPYFHDQVLLKGMTSISD | 1.76

Row | Variant | protein stability index
55 | AVLAASSPYFHDQVLLKGMTSISN | 1.83
56 | AVLAASSPYFHDQVLLKGMTSIST | 1.27
57 | AVLAASSPYFHDQVLLKGMTSISK | 1.95
58 | AVLAASSPYFHDQVLLKGMTKISL | 2.35
59 | AVLAASSPYFHDQVLLKGMTFISL | 2.52
60 | AVLAASSPYFHDQVLLKGMTQISL | 2.67
61 | AVLAASSPYFHDQVLLKGMTEISL | 1.95
62 | AVLAASSPYFHDQVLLKGMTCISL | 3.52
63 | AVLAASSPYFHDQVLLKGMTAISL | 2.04
64 | AVLAASSPYFHDQVLLKGMTGISL | 2.85
65 | AVLAASSPYFHDQVLLKGMTDISL | 2.17
66 | AVLAASSPYFHDQVLLKGMTLISL | 3.04
67 | AVLAASSPYFHDQVLLKGMTYISL | 3.85
68 | AVLAASSPYFHDQVLLKGMTNISL | 2.11
69 | AVLAASSPYFHDQVLLKGMTSDSL | 1.66
70 | AVLAASSPYFHDQVLLKGMTSTSL | 2.75
71 | AVLAASSPYFHDQVLLKGMTSQSL | 1.09
72 | AVLAASSPYFHDQVLLKGMTSHSL | 2.43
73 | AVLAASSPYFHDQVLLKGMTSNSL | 1.44
74 | AVLAASSPYFHDQVLLKGMTSPSL | 1.72

Row | Variant | protein stability index
75 | AVLAASSPYFHDQVLLKGMTSASL | 3.31
76 | AVLAASSPYFHDQVLLKGMTSSSL | 1.29
77 | AVLAASSPYFHDQVLLKGMTSCSL | 1.83
78 | AVLAASSPYFHDQVLLKGMTSGSL | 2.4
79 | AVLAASSPYFHDQVLLKGMTSKSL | 2.13
80 | AVLAASSPYFHDQVLLKGMTSYSL | 3.76
81 | AVLAASSPYFHDQVLLKGMTSESL | 4.43
82 | AVLAASSPYFHDQVLLKGMTSICL | 1.95
83 | AVLAASSPYFHDQVLLKGMTSIIL | 2.51
84 | AVLAASSPYFHDQVLLKGMTSITL | 1.22
85 | AVLAASSPYFHDQVLLKGMTSIKL | 2.8
86 | AVLAASSPYFHDQVLLKGMTSIFL | 4.12
87 | AVLAASSPYFHDQVLLKGMTSIHL | 2.46
88 | AVLAASSPYFHDQVLLKGMTSIGL | 3.35
89 | AVLAASSPYFHDQVLLKGMTSIPL | 3.55
90 | AVLAASSPYFHDQVLLKGMTSILL | 2.64
91 | AVLAASSPYFHDQVLLKGMTSIML | 1.86
92 | AVLAASSPYFHDQVLLKGMTSIWL | 2.97
93 | AVLAASSPYFHDQVLLKGMTSIEL | 2.57
94 | AVLAASSPYFHDQVLLKGMTSIDL | 1.3
